Like-named read-outs stand apart in the source and are kept apart here. Each block holds one binder with its values, some of them ahead of it.
Columns and labels:
[1] = molecular target: shed MICA002 polypeptide (human) (UniProt Q29983); assay: capture ELISA (anti-hFc / antibody / shed antigen / biotin-6D4)
[2] = molecular target: shed MICA004 polypeptide (human) (UniProt Q29983); assay: as above
[3] = molecular target: shed MICA008 polypeptide (human) (UniProt Q29983); assay: as above
[4] = molecular target: shed MICB005 polypeptide (human) (UniProt Q29980); assay: as above
[5] = molecular target: shed MICA002 polypeptide (human) (UniProt Q29983); assay: as above; remark: listed apart in the source
[6] = molecular target: shed MICA004 polypeptide (human) (UniProt Q29983); assay: as above; remark: listed apart in the source
[7] = molecular target: shed MICA008 polypeptide (human) (UniProt Q29983); assay: as above; remark: listed apart in the source
[8] = molecular target: shed MICB005 polypeptide (human) (UniProt Q29980); assay: as above; remark: listed apart in the source
[9] = molecular target: shed MICA002 polypeptide (human) (UniProt Q29983); assay: as above; remark: listed apart in the source
[10] = molecular target: shed MICA004 polypeptide (human) (UniProt Q29983); assay: as above; remark: listed apart in the source
[11] = molecular target: shed MICA008 polypeptide (human) (UniProt Q29983); assay: as above; remark: listed apart in the source
[12] = molecular target: shed MICB005 polypeptide (human) (UniProt Q29980); assay: as above; remark: listed apart in the source
[13] = molecular target: shed MICA002 polypeptide (human) (UniProt Q29983); assay: as above; remark: listed apart in the source
[14] = molecular target: shed MICA004 polypeptide (human) (UniProt Q29983); assay: as above; remark: listed apart in the source
[15] = molecular target: shed MICA008 polypeptide (human) (UniProt Q29983); assay: as above; remark: listed apart in the source
[16] = molecular target: shed MICB005 polypeptide (human) (UniProt Q29980); assay: as above; remark: listed apart in the source
[17] = molecular target: shed MICA002 polypeptide (human) (UniProt Q29983); assay: ELISA: antibody titrated on anti-hFc plate, shed MICA002 captured, detection NKG2D-His + anti-His-HRP
[18] = molecular target: shed MICA004 polypeptide (human) (UniProt Q29983); assay: ELISA: antibody titrated on anti-hFc plate, shed MICA004 captured, detection NKG2D-His + anti-His-HRP
[19] = molecular target: human MICB005 on cells (human); assay: flow cytometry on CHO-MICB005 cells; column HSA_1w (1 week in human serum at 37 C)
[20] = molecular target: human MICB005 on cells (human); assay: flow cytometry on CHO-MICB005 cells; column HSA_2w (2 weeks in human serum at 37 C)
[21] = molecular target: human MICB005 on cells (human); assay: flow cytometry on CHO-MICB005 cells; column Control_1w (control of the 1-week experiment)
[22] = molecular target: human MICB005 on cells (human); assay: flow cytometry on CHO-MICB005 cells; column Control_2w (control of the 2-week experiment)
[23] = molecular target: human MICA008 on cells (human); assay: flow cytometry, HeLa cells (MICA008)
[24] = molecular target: human MICA004 on cells (human); assay: flow cytometry, CHO cells, panel headed MICA004

EC50 [1]: 0.02 µg/mL | Max OD450 [1]: 3.42 | EC50 [2]: 0.02 µg/mL | Max OD450 [2]: 2.76 | EC50 [3]: 0.03 µg/mL | Max OD450 [3]: 0.41 | EC50 [4]: 0.02 µg/mL | Max OD450 [4]: 2.81 | EC50 [5]: 0.019 µg/mL | Max OD450 [5]: 1.93 | EC50 [6]: 0.023 µg/mL | Max OD450 [6]: 2.01 | EC50 [7]: 0.024 µg/mL | Max OD450 [7]: 1.26 | EC50 [8]: 0.026 µg/mL | Max OD450 [8]: 1.43 | EC50 [9]: 0.032 µg/mL | Max OD450 [9]: 1.86 | EC50 [10]: 0.018 µg/mL | Max OD450 [10]: 1.94 | EC50 [11]: 0.035 µg/mL | Max OD450 [11]: 1.39 | EC50 [12]: 0.035 µg/mL | Max OD450 [12]: 1.54 | EC50 [13]: 0.025 µg/mL | maxOD [13]: 4.5 | EC50 [14]: 0.035 µg/mL | maxOD [14]: 2.8 | EC50 [15]: 0.037 µg/mL | maxOD [15]: 1.67 | EC50 [16]: 0.043 µg/mL | maxOD [16]: 3.83 | EC50 [17]: 0.071 µg/mL | EC50 [18]: 0.056 µg/mL
B1: 1D5 (antibody, human IgG1, kappa, V domains shown)
VH: EIQLQQSGPELVKPGASVKVSCKASGYAFTSQNIYWVKQSHGKSLEWIGYIEPYNVVPMYNPKFKGKATLTVDKSSSSAYIHLNSLTSEDSAIYYCARSGSSNFDYWGQGTTLTVSS
VL: EIILTQSPTTMAASPGEKITITCSASSSISSHYLHWYQQKSGFSPKLLIYRTSNLASGVPARFSGSGSGTSYSLTIGTMEAEDVATYYCQQGSSLPLTFGAGTKVEIKR

EC50 [19]: 0.26 µg/mL | EC50 [20]: 0.32 µg/mL | EC50 [21]: 0.295 µg/mL | EC50 [22]: 0.314 µg/mL
B2: h36B3GS (antibody, V domains shown)
VH: QVQLVQSGAEVKKPGASVKVSCKASGYAFTKYNFYWVRQAPGQGLEWIGYIDPYFGGTVYNQKFKGKATLTVDKSTSTAYMELRSLRSDDTAVYYCATTDSYSLFTYWGQGTLVTVSS
VL: DIQMTQSPSSLSASVGDRVTITCRASQDISNYLNWYQQTPGKAVKLLIYYTSRLHSGVPSRFSGSGSGTDYTLTISSLQPEDIATYFCLQGNTLPFTFGQGTKLEIK

EC50 (read off the curve) [23]: 0.4 µg/mL | EC50 (read off the curve) [24]: 0.5 µg/mL
B3: h36B3GA (antibody, V domains shown)
VH: QVQLVQSGAEVKKPGASVKVSCKASGYAFTKYNFYWVRQAPGQGLEWIGYIDPYFGGTVYNQKFKGKATLTVDKSTSTAYMELRSLRSDDTAVYYCATTDAYSLFTYWGQGTLVTVSS
VL: DIQMTQSPSSLSASVGDRVTITCRASQDISNYLNWYQQTPGKAVKLLIYYTSRLHSGVPSRFSGSGSGTDYTLTISSLQPEDIATYFCLQGNTLPFTFGQGTKLEIK
